The source of these data is patent CN101218351A (UNIV DUKE, dated 2008).

The assay has as its target T1, human CD19 (human, UniProt P15391 20-556).
T1 construct: whole, on cells; also called hCD19
T1 sequence (looked up): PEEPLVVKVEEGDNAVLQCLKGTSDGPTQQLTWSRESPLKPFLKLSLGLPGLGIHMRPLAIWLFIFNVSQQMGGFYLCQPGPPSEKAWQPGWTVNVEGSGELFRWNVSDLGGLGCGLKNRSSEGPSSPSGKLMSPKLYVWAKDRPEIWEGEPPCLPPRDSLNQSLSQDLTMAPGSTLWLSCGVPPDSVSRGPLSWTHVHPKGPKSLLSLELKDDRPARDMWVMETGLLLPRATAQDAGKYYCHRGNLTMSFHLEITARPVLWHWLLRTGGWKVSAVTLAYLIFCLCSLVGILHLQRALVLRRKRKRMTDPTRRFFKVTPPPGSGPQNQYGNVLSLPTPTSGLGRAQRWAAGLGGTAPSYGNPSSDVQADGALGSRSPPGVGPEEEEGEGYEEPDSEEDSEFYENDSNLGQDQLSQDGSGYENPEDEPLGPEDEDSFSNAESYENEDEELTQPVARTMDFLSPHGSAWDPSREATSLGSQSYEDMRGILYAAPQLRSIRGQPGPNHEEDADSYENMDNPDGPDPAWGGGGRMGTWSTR
The assay can be described thus: flow cytometry on hCD19 cDNA-transfected 300.19 cells, antibody at 5 ug/mL, anti-mouse Ig PE secondary.

B1: FMC63 anti-CD19 antibody (antibody, IgG2a, V domains shown)
VH: EVKLQESGPGLVAPSQSLSVTCTVSGVSLPDYGVSWIRQPPRKGLEWLGVIWGSEDTTYYNSALKSRLTIIKDNSKSQVFLKMNSLQTDDTAIYYCAKHYYYGGSYAMDYWGQGTSVTVSS
VL: DIQMTQTTSSLSASLGDRVTISCRASQDISKYLNWYQQKPDGTVKLLIYHTSRLHSGVPSRFSGSGSGTDYSLTISNLEQEDIATYFCQQGNTLPYTFGGGTKLEIT
notes: Mouse monoclonal IgG2a, bought from Chemicon International
In the case of B1, the binding result was “binds”.
